In the data set the target is T1, MEG-3 HMGL- (Caenorhabditis elegans, UniProt Q9TXM1 1-862, F705A;Y708A;Y713A;N725A).
T1 sequence: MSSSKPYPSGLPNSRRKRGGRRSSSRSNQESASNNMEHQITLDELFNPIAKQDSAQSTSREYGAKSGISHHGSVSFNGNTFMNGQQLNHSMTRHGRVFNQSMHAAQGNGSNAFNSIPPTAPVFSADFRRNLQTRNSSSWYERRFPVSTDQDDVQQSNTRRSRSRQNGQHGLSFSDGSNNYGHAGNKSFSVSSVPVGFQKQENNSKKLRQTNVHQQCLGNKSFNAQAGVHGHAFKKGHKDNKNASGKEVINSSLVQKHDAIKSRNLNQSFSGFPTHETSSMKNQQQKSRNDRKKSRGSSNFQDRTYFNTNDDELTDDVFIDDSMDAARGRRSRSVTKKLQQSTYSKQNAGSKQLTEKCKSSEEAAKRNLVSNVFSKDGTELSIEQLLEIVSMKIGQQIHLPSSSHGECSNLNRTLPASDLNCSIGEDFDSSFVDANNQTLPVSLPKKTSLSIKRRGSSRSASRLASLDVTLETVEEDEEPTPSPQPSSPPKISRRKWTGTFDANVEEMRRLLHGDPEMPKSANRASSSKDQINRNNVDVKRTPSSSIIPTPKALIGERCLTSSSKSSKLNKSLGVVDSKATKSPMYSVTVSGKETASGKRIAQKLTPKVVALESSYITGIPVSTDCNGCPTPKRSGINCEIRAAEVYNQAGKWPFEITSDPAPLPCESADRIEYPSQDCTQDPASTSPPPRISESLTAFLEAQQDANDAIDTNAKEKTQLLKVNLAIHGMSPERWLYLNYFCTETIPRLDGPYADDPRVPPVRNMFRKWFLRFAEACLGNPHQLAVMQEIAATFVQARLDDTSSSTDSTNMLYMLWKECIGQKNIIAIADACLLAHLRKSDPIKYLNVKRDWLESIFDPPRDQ
As to the kind of experiment: filter binding; high affinity, similar to wild type; Kd only in figure; 50 nM RNA, 3.75 mM HEPES (stock pH 7.4), 150 mM NaCl, 0.9 mM beta-mercaptoethanol, 1.5% glycerol, 10 mM Tris HCl, 30 min, room temperature. The following applies: protein: recombinant; tags: N-terminal 6xHis (pET28a); label: 3' fluorescein; single strand.

B1: 30U RNA (poly-U30) (ssRNA)
RNA: UUUUUUUUUUUUUUUUUUUUUUUUUUUUUU
Turning to B1, the binding result was “binds”.

The values are drawn from doi:10.1101/2020.10.15.340570, “Coordination of RNA and protein condensation by the P granule protein MEG-3”.
